The values that follow come from article PMC7494283.

This assay has as its target SARS-CoV-2 prefusion-stabilized S ectodomain trimer (SARS-CoV-2 | not stated) (UniProt P0DTC2).

Consider S2X35 mAb (IgG1) (antibody), for which the SARS-CoV-2 pseudovirus neutralization IC50; hinders ACE2 binding turned out to be 0.5 µg/mL.
